Reference: patent US20060029546A1 (DECODE GENETICS, published 2006)

Tests used:
[1] = biological target: T1, ErbB4 D843A bait (cytoplasmic domain, mutation in the catalytic site) (human, UniProt Q15303 676-1308); test: yeast two-hybrid growth assay
T1 construct: not shown: fusion partner encoded by the bait vector
From the text: (§1) To characterize components of the NRG1 signaling pathway downstream of the ErbB4 receptor tyrosine kinase, the predominant neuronal receptor for NRG1, the cytoplasmic domain of ErbB4 was used as a bait in a yeast two-hybrid interaction screen. The ErbB4 bait was created by cloning the entire cytoplasmic domain into the vector pGBKT7 (Clontech, Palo Alto, Calif.) using homologous recombination in the yeast strain AH109 (Clontech, Palo Alto, Calif.). Liner vector and the cytoplasmic fragment of ErbB4 were transfected into the yeast strain using the lithium acetate (LiAc) method and plated onto […] negative selection media plates. Plasmid DNA was isolated from positive colonies and the presence of ErbB4 was verified by sequencing.
(§2) The ErbB4 bait was capable of tyrosine auto-phosphorylation in yeast cells. Tyrosine phosphorylation was absent from ErbB4 baits which contained mutations in the ATP binding site (K751A) or the catalytic site (D843A). Homo sapiens random prime hippocampus cDNA library was created using the ZAP-cDNA Gigapack III Gold Cloning Kit (Stratagene) and transformed into yeast using Li Acetate. Screening of a human hippocampus cDNA library yielded a partial cDNA clone comprising the SH2 and SH3 domains of Fyn (amino acids 60-252 of SEQ ID NO: 3). SH2 domains are protein modules able to bind phosphorylated tyrosine residues. […]

[2] = biological target: T2, ErbB4 K751A bait (cytoplasmic domain, mutation in the ATP binding site) (human, UniProt Q15303 676-1308); test: yeast two-hybrid growth assay
T2 construct: not shown: fusion partner encoded by the bait vector
From the text: as §1, §2

B1: partial cDNA clone comprising the SH2 and SH3 domains of Fyn (amino acids 60-252) (enzyme)
chain: not shown
notes: The clone came from a human hippocampus cDNA library; also called Fyn clone; p59Fyn; not shown: fusion partner of the yeast two-hybrid library (prey) vector
- binding result [1]: no binding
- binding result [2]: no binding
